Source: the supplement of paper PMC10567573

B1: ZBED3 (parent)
chain: GPGFHAGTSALWRHLRSAHRRELE
B2: TRAF3IP2 (parent)
chain: KEHVPTWLQNTHVYSWPKNKKNIL

Variants of: B1
Assay: protein stability index of a GFP-peptide fusion (GPS, HEK-293T) (PSI 1-6); higher = more stable
Details: c terminus: a fixed tail appended
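Note: lentivirally expressed fusions sorted by FACS into six bins by GFP to DsRed ratio, PSI derived from sequencing read proportions per bin multiplied by bin number.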

Row | Variant | protein stability index
1 | L15E | 1.76
2 | L15F | 2.16
3 | L15G | 1.27
4 | L15H | 2.34
5 | L15I | 2.3
6 | L15K | 3.15
7 | L15M | 2.7
8 | L15N | 2.57
9 | L15P | 1.76
10 | L15Q | 1.78
11 | L15R | 3.45
12 | L15S | 2.21
13 | L15T | 2.05
14 | L15W | 2.7
15 | L15Y | 2.1
16 | R16A | 2.45
17 | R16C | 1.62
18 | R16D | 2.25
19 | R16E | 2.41
20 | R16F | 2.07
21 | R16G | 1.73
22 | R16H | 2.17
23 | R16I | 2.12
24 | R16K | 2.41

Row | Variant | protein stability index
25 | R16L | 1.81
26 | R16M | 2.97
27 | R16N | 2.34
28 | R16P | 2.33
29 | R16Q | 2.33
30 | R16S | 2.21
31 | R16T | 2.23
32 | R16V | 1.84
33 | R16W | 1.66
34 | R16Y | 1.75
35 | S17A | 2.14
36 | S17C | 1.56
37 | S17D | 2.9
38 | S17E | 2.78
39 | S17F | 2.25
40 | S17G | 2.6
41 | S17H | 1.85
42 | S17I | 2.17
43 | S17K | 2.51
44 | S17L | 3.44
45 | S17M | 2.25
46 | S17N | 1.69
47 | S17P | 1.9
48 | S17Q | 2.03

Row | Variant | protein stability index
49 | S17R | 2.42
50 | S17T | 2.65
51 | S17V | 1.94
52 | S17W | 3.17
53 | S17Y | 2.38
54 | A18C | 1.79
55 | A18D | 2.02
56 | A18E | 3.1
57 | A18F | 2.07
58 | A18G | 1.89
59 | A18H | 2.04
60 | A18I | 2.12
61 | A18K | 2.81
62 | A18L | 2.79
63 | A18M | 1.77
64 | A18N | 2.45
65 | A18P | 3.65
66 | A18Q | 2.61
67 | A18R | 3.02
68 | A18S | 1.88
69 | A18T | 2.47
70 | A18V | 1.99
71 | A18W | 1.63
72 | A18Y | 1.85

Row | Variant | protein stability index
73 | H19A | 2.74
74 | H19C | 2.7
75 | H19D | 2.03
76 | H19E | 2.21
77 | H19F | 2.84
78 | H19G | 2.14
79 | H19I | 2.3
80 | H19K | 2.54
81 | H19L | 2.53
82 | H19M | 1.73
83 | H19N | 1.58
84 | H19P | 2.11
85 | H19Q | 2.2
86 | H19R | 2.68
87 | H19S | 2.29
88 | H19T | 2.14
89 | H19V | 3.03
90 | H19W | 2.14
91 | H19Y | 2.5
92 | R20A | 1.82
93 | R20C | 2.27
94 | R20D | 2.01
95 | R20E | 2.08
96 | R20F | 2.36

Row | Variant | protein stability index
97 | R20G | 2.23
98 | R20H | 1.37
99 | R20I | 1.74
100 | R20K | 2.54
101 | R20L | 1.59
102 | R20M | 2.17
103 | R20N | 1.4
104 | R20P | 2.54
105 | R20Q | 2.31
106 | R20S | 1.86
107 | R20T | 1.92
108 | R20V | 2.06
109 | R20W | 2.83
110 | R20Y | 1.62
111 | R21A | 1.7
112 | R21C | 4.08
113 | R21D | 2.35
114 | R21E | 2.33
115 | R21F | 1.02
116 | R21G | 1.75
117 | R21H | 1.73
118 | R21I | 1.97
119 | R21K | 2.51
120 | R21L | 1.77

Row | Variant | protein stability index
121 | R21M | 1.9
122 | R21N | 1.77
123 | R21P | 1.95
124 | R21Q | 2.52
125 | R21S | 1.84
126 | R21T | 2.49
127 | R21V | 1.53
128 | R21W | 2.07
129 | R21Y | 2.14
130 | E22A | 2.76
131 | E22C | 2.08
132 | E22D | 2.06
133 | E22F | 2.43
134 | E22H | 3.09
135 | E22I | 1.95
136 | E22K | 1.97
137 | E22L | 2.4
138 | E22M | 2.38
139 | E22N | 1.95
140 | E22P | 1.77
141 | E22Q | 1.72
142 | E22R | 2.38
143 | E22S | 2.17
144 | E22T | 2.23

Row | Variant | protein stability index
145 | E22V | 2.44
146 | E22W | 2.25
147 | E22Y | 1.47
148 | L23A | 2.83
149 | L23C | 2.14
150 | L23D | 1.95
151 | L23E | 2.07
152 | L23F | 2.11
153 | L23G | 2.32
154 | L23H | 2.37
155 | L23I | 2.19
156 | L23K | 2.79
157 | L23M | 2.32
158 | L23N | 2.03
159 | L23P | 1.98
160 | L23Q | 2.13
161 | L23R | 2.91
162 | L23S | 2.36
163 | L23T | 1.97
164 | L23V | 1.92
165 | L23W | 1.88
166 | L23Y | 2.42
167 | E24A | 2.02
168 | E24C | 1.65

Row | Variant | protein stability index
169 | E24D | 1.94
170 | E24F | 2.32
171 | E24G | 1.76
172 | E24H | 1.85
173 | E24I | 2.65
174 | E24K | 3.2
175 | E24L | 2
176 | E24M | 2.78
177 | E24N | 1.91
178 | E24P | 1.93
179 | E24Q | 2.51
180 | E24R | 2.96
181 | E24S | 1.97
182 | E24T | 2.35
183 | E24V | 2.11
184 | E24W | 1.84
185 | E24Y | 2.42

Variants of: B2
Assay: as above
Details: c terminus: a fixed tail appended

Row | Variant | protein stability index
186 | Y14K | 2.49
187 | K20N | 2.02
188 | K21Y | 1.83
189 | P17F | 2.18
190 | K18V | 2.14
191 | T11K | 2.57
192 | K18G | 2.53
193 | V13L | 2.44
194 | E2Y | 2.07
195 | P5Y | 1.94
196 | I23D | 3.75
197 | S15Y | 2.27
198 | V13E | 2.52
199 | V4E | 3.23
200 | H3I | 2.53
201 | N22T | 2.75
202 | Q9E | 2.68
203 | W7L | 3.2
204 | T6V | 2.17
205 | V4S | 2.77
206 | E2A | 1.94
207 | P5Q | 1.45
208 | K18T | 2.52
209 | S15V | 2.43
210 | K18I | 2.05

Row | Variant | protein stability index
211 | L8S | 3.01
212 | N22D | 2.04
213 | H3F | 2.16
214 | E2R | 3.4
215 | H3W | 2.02
216 | Q9A | 2.18
217 | I23W | 2.3
218 | T6E | 2.59
219 | E2C | 1.54
220 | L8G | 3.21
221 | V13Q | 2.31
222 | V13I | 2.51
223 | N10A | 2.34
224 | H3A | 2.54
225 | N22L | 1.7
226 | H3L | 2.6
227 | E2K | 2.13
228 | T11E | 2.83
229 | Y14N | 3.24
230 | T6M | 2.22
231 | P5T | 2.14
232 | K18N | 2.81
233 | L8T | 3.45
234 | K18W | 1.91
235 | K1R | 2.42

Row | Variant | protein stability index
236 | K20A | 1.94
237 | V13F | 2.65
238 | L24A | 3.28
239 | V4Q | 3.54
240 | I23N | 3.19
241 | T6C | 1.81
242 | Y14H | 3.46
243 | N19T | 2.01
244 | V13C | 2.49
245 | K21G | 2.31
246 | T6F | 1.93
247 | N22R | 2.2
248 | L8R | 2.98
249 | P5D | 3.08
250 | N19S | 2.61
251 | K20C | 1.89
252 | T6W | 1.53
253 | V13M | 2.88
254 | Q9N | 3.18
255 | L24D | 3.24
256 | L24E | 2.84
257 | N22H | 2.08
258 | L24C | 2.69
259 | H3V | 2.69
260 | W16E | 3.77

Row | Variant | protein stability index
261 | H12M | 2.42
262 | N19A | 2.81
263 | W7A | 3.39
264 | L24T | 3.18
265 | H12G | 2.8
266 | H3Q | 2.62
267 | W7I | 2.61
268 | S15G | 2.99
269 | N19L | 1.55
270 | V4C | 1.87
271 | N19M | 1.97
272 | T11F | 2.53
273 | K1F | 1.69
274 | N10E | 2.66
275 | T11M | 2.91
276 | I23G | 2.96
277 | N22K | 2.9
278 | N10T | 2.85
279 | K18S | 2.1
280 | P5S | 2.47
281 | Y14S | 3.4
282 | L24R | 3.49
283 | I23Y | 3.55
284 | Q9S | 2.62
285 | K21M | 1.95

Row | Variant | protein stability index
286 | T11C | 2.28
287 | P17L | 1.85
288 | K1H | 2.58
289 | Y14E | 3.14
290 | H3N | 3.17
291 | Q9F | 2.38
292 | P17S | 2.81
293 | N10L | 2.03
294 | K1W | 1.98
295 | T11N | 3.08
296 | W16D | 3.53
297 | K18Y | 3.3
298 | K21V | 2.03
299 | W16A | 3.35
300 | W7E | 3.97
301 | P5V | 2.24
302 | E2W | 1.57
303 | V4Y | 2.27
304 | T6D | 2.71
305 | K20H | 2.21
306 | Q9I | 2.55
307 | W16M | 2.75
308 | K1S | 2.76
309 | K1C | 2.26
310 | Y14C | 2.63

Row | Variant | protein stability index
311 | S15D | 2.89
312 | T11D | 2.52
313 | N10C | 2.07
314 | Y14Q | 3.06
315 | N22V | 2.51
316 | H3Y | 2.03
317 | Q9D | 2.53
318 | L24W | 1.86
319 | E2M | 2.5
320 | P5R | 1.95
321 | W7H | 3.21
322 | N22C | 1.71
323 | Y14I | 3.71
324 | Q9P | 2.81
325 | N22S | 1.97
326 | P5I | 1
327 | T11H | 2.38
328 | Q9H | 2.54
329 | P17C | 2.36
330 | W16H | 3.39
331 | T6L | 2.58
332 | L24Y | 2.51
333 | L8M | 3.34
334 | T6N | 3.38
